According to US20090202547A1 (FIBRON, published 2009):
Residue numbers refer to the chain shown, from its start.

B1: MSPRO28 (Fab, V domains shown)
VH: QVQLVQSGAEVKKPGSSVKVSCKASGGTFSSYAISWVRQAPGQGLEWMGGIIPIFGTANYAQKFQGRVTITADESTSTAYMELSSLRSEDTAVYYCARGGGWVSHGYYYLFDLWGQGTLVTVSS
VL: DIQMTQSPSSLSASVGDRVTITCRASQGISSYLAWYQQKPGKAPKLLIYAASSLQSGVPSRFSGSGSGTDFTLTISSLQPEDFAVYYCFQYGSIPPTFGQGTKVEIKR
B2: MSPRO11 (Fab, V domains shown)
VH: QVQLVQSGAEVKKPGASVKVSCKASGYTFTSYYMHWVRQAPGQGLEWMGWINPNSGGTNYAQKFQGRVTMTRDTSISTAYMELSSLRSEDTAVYYCARYYGSSLYHYVFGGFIDYWGQGTLVTVSS
VL: DIALTQPASVSGSPGQSITISCTGTSSDVGGYNYVSWYQQHPGKAPKLMIYDVSNRPSGVSNRFSGSKSGNTASLTISGLQAEDEADYYCQSHHFYEVFGGGTKLTVLG
B3: MSPRO59 (Fab, V domains shown)
VH: QVQLQQSGPGLVKPSQTLSLTCAISGDSVSSNSAAWNWIRQSPGRGLEWLGRTYYRSKWYNDYAVSVKSRITINPDTSKNQFSLQLNSVTPEDTAVYYCARSYYPDFDYWGQGTLVTVSS
VL: DIELTQPPSVSVAPGQTARISCSGDALGDKYASWYQQKPGQAPVLVIYDDSDRPSGIPERFSGSNSGNTATLTISGTQAEDEADYYCQSYDGPDLWVFGGGTKLTVLG
notes: HuCAL Fab, framework VH6_L3
B4: MSPRO26 (Fab, V domains shown)
VH: QVQLVQSGAEVKKPGASVKVSCKASGYTFTSYYMHWVRQAPGQGLEWMGWINPNSGGTNYAQKFQGRVTMTRDTSISTAYMELSSLRSEDTAVYYCARGYWYAYFTYINYGYFDNWGQGTLVTVSS
VL: DIALTQPASVSGSPGQSITISCTGTSSDVGGYNYVSWYQQHPGKAPKLMIYDVSNRPSGVSNRFSGSKSGNTASLTISGLQAEDEADYYCQSYDNNSDVVFGGGTKLTVLG
B5: MSPRO12 (Fab, V domains shown)
VH: QVQLKESGPALVKPTQTLTLTCTFSGFSLSTSGVGVGWIRQPPGKALEWLALIDWDDDKYYSTSLKTRLTISKDTSKNQVVLTMTNMDPVDTATYYCARYHSWYEMGYYGSTVGYMFDYWGQGTLVTVSS
VL: DIELTQPPSVSVAPGQTARISCSGDALGDKYASWYQQKPGQAPVLVIYDDSDRPSGIPERFSGSNSGNTATLTISGTQAEDEADYYCQSYDFDFAVFGGGTKLTVLG
notes: HuCAL Fab, framework VH2_L3
B6: MSPRO24 (Fab, V domains shown)
VH: QVQLVQSGAEVKKPGSSVKVSCKASGGTFSSYAISWVRQAPGQGLEWMGGIIPIFGTANYAQKFQGRVTITADESTSTAYMELSSLRSEDTAVYYCARVNHWTYTFDYWGQGTLVTVSS
VL: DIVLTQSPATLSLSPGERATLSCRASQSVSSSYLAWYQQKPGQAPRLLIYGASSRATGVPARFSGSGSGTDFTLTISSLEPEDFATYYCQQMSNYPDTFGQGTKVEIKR
B7: MSPRO55 (Fab, V domains shown)
VH: QVQLVQSGAEVKKPGASVKVSCKASGYTFTSYYMHWVRQAPGQGLEWMGWINPNSGGTNYAQKFQGRVTMTRDTSISTAYMELSSLRSEDTAVYYCARSMNSTMYWYLRRVLFDHWGQGTLVTVSS
VL: B4 VL with N95M, N96Y, S97N, D98Y, V99I
B8: MSPRO54 (Fab, V domains shown)
VH: QVQLVQSGAEVKKPGASVKVSCKASGYTFTSYYMHWVRQAPGQGLEWMGWINPNSGGTNYAQKFQGRVTMTRDTSISTAYMELSSLRSEDTAVYYCARNMAYTNYQYVNMPHFDYWGQGTLVTVSS
VL: B5 VL with F92Y, D93F, F94K, A95L
B9: MS-Pro-26-dHLX-MH (Fab, V domains shown)
VH: B4 VH
VL: B4 VL
notes: Fab mini-antibody format Fab-dHLX-MH, a dimer of the Fab monomer; also called MSPRO26 dimeric dHLX format; Fab-dHLX
B10: MS-Pro-28-dHLX-MH (Fab, V domains shown)
VH: B1 VH
VL: B1 VL
notes: Fab mini-antibody format Fab-dHLX-MH, a dimer of the Fab monomer; also called MSPRO28 Fab-dHLX
B11: MS-Pro-11-dHLX-MH (Fab, V domains shown)
VH: B2 VH
VL: B2 VL
notes: Fab mini-antibody format Fab-dHLX-MH, a dimer of the Fab monomer; also called MSPRO11 Fab-dHLX
B12: MS-Pro-24-dHLX-MH (Fab, V domains shown)
VH: B6 VH
VL: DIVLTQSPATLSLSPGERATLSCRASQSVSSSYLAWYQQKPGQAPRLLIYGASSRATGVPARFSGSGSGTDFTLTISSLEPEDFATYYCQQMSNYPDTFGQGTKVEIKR
notes: Fab mini-antibody format Fab-dHLX-MH, a dimer of the Fab monomer; also called MSPRO24 Fab-dHLX

Molecular target: T1, FGFR3 (wild type) on cells (human, UniProt P22607 23-806)
T1 construct: also called FDCP-FR3; FDCP-FGFR3
Assay: FACS

T1 sequence (P22607 23-806 limits assumed): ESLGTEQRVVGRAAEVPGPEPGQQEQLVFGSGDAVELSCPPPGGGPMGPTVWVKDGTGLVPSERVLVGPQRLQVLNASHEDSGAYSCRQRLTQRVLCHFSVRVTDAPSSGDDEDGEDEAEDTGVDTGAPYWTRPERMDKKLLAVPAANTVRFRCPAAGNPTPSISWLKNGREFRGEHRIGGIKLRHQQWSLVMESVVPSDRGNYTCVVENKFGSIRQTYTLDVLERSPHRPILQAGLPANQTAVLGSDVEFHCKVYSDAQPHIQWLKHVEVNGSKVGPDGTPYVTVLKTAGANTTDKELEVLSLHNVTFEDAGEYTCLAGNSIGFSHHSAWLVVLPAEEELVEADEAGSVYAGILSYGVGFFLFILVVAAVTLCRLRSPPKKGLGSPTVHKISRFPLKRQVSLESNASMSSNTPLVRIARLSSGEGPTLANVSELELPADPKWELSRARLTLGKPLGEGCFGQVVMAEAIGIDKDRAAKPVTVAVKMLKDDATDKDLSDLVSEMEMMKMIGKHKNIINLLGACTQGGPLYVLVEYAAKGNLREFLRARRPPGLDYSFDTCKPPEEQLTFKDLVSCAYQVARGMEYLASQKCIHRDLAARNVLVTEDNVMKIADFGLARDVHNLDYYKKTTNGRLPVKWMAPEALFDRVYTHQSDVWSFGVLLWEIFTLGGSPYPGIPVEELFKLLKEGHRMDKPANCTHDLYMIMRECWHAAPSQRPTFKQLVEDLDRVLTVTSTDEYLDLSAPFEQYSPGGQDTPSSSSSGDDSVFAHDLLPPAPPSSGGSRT

Binder | Kd
B1 | 0.3 nM
B2 | 4 nM
B3 | < 1 nM
B4 | 1.4 nM
B5 | 6.5 nM

Molecular target: T2, FR3exFc (human)
T2 construct: also called FGFR3/Fc; FR3/Fc
Assay: BIACORE
Procedure: (§1) The affinity measurements were performed by BIACORE® analysis according to the standard procedure recommended by the supplier (Pharmacia). The anti-Fc antibody was coupled via the EDC/NHS chemistry to the chip and subsequently FGFR3 was captured. The Fabs of the invention were then bound to this surface.

T2 sequence (chain, as listed by the source limits assumed): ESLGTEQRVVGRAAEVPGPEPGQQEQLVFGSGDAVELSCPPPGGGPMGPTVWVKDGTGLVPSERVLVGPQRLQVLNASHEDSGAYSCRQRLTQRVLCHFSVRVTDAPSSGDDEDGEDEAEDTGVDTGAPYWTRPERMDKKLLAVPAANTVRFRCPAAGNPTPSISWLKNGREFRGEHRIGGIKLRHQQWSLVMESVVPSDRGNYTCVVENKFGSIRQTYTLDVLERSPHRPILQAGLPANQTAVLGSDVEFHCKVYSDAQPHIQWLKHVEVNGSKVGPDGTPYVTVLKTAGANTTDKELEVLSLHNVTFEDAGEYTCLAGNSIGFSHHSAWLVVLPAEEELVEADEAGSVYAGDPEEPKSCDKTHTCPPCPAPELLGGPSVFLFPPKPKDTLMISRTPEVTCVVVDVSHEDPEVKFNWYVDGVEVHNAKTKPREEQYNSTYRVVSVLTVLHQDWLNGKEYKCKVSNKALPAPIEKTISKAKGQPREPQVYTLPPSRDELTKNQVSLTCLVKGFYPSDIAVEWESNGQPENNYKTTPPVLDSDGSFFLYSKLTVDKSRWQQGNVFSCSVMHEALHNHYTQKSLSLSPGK

Binder | koff
B1 | 0.004 s⁻¹
B2 | 0.0004 s⁻¹
B3 | 0.00071 s⁻¹
B6 | 0.0054 s⁻¹
B7 | 0.00074 s⁻¹
B4 | 0.0005 s⁻¹
B8 | 0.002 s⁻¹
B5 | 0.0023 s⁻¹

Molecular target: T1, FGFR3 (wild type) on cells
Assay: cell-based or functional assay

Binder | IC50 FR3 (FGF9), FDCP-FGFR3 proliferation assay
B1 | 50 nM
B2 | 220 nM
B3 | 19 nM
B6 | 70 nM
B7 | 34 nM
B4 | 70 nM
B8 | 45 nM
B5 | 58 nM

Molecular target: T1, FGFR3 (wild type) on cells
Assay: cell-based or functional assay
Remark: another data set of the same source

Binder | IC50, FDCP-FGFR3 proliferation assay with FGF9, monomeric Fab (in parentheses) | IC50, FDCP-FGFR3 proliferation assay with FGF9, dimeric dHLX format
B4 | 70 nM | 
B9 |  | 8 nM
B5 | 58 nM | 

Molecular target: T1, FGFR3 (wild type) on cells
Assay: indirect FACS-Scatchard

Binder | Kd
B1 | 0.3 nM
B2 | 4 nM
B6 | 0.3 nM
B4 | 1.4 nM
B5 | 6.5 nM

Molecular target: T2, FR3exFc
Assay: BIAcore, Fab-dHLX-MH miniantibody

Binder | Kd
B10 | 1.6 nM
B11 | 0.7 nM
B12 | 2 nM
B9 | 2 nM

Molecular target: T3, FR1exFc (UniProt P11362 22-376, limits assumed)
T3 construct: extracellular domain; also called FGFR1/Fc; FR1/Fc; not shown: Fc part; the construct of FR1exFc is not described
T3 sequence (looked up): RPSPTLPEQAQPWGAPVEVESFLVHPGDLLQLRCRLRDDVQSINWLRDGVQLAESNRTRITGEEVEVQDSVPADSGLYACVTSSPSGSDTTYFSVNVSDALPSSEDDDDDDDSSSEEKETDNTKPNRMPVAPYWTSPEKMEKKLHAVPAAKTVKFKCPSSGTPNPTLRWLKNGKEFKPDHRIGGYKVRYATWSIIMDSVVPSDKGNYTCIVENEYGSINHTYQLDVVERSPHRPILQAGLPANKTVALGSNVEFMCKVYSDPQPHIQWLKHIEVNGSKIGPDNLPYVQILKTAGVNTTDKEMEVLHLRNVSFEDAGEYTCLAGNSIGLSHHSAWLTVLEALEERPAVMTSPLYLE
Assay: Affinity to FGFR1 (BIACORE and/or FACS)

Binder | Kd
B1 | 160 nM
B4 | 32 nM
B8 | 2.5 nM

Molecular target: T2, FR3exFc
Assay: BIACORE, FGFR3 captured on an anti-Fc chip
Procedure: as §1

Binder | Kd
B1 | 9 nM
B2 | 4 nM
B3 | 1.5 nM
B6 | 10 nM
B7 | 2.9 nM
B4 | 4 nM
B8 | 3.7 nM
B5 | 14 nM

Molecular target: T2, FR3exFc
Assay: BIACORE, FGFR3 captured on an anti-Fc chip
Remark: another data set of the same source
Procedure: as §1

Binder | Kd
B1 | 9 nM
B2 | 4 nM
B6 | 10 nM
B4 | 4 nM
B5 | 14 nM

Molecular target: T2, FR3exFc
Assay: BIAcore; number in parentheses taken as the monomeric Fab
Procedure: as §1

Binder | Kd
B1 | 9 nM
B2 | 4 nM
B6 | 10 nM
B4 | 4 nM
B5 | 14 nM

Molecular target: T4, hFR3^D2Fc (human, UniProt P22607 143-250)
T4 construct: Only domain 2 of the entry stood in the assay; also called product of pChFR3^D2Fc; not shown: human Fc
T4 sequence: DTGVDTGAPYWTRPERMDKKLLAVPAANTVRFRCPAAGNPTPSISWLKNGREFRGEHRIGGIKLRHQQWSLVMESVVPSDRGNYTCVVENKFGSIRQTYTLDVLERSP
Assay: ELISA, Fc fusion anchored on an anti-human Fc coated plate, bound Fab detected with HRP anti-human Fab
Source text: Constructs comprising cDNAs that code for segments of the extracellular domain of FGFR3 were generated (FIG. 10). D2 comprises Ig domain 2, D2-3 comprises Ig domains 2 and 3, and D1-3 comprises Ig domains 1, 2 and 3. These constructs include pChFR3^D2Fc that codes for Ig-like domain 2 of FGFR3 and pChFR3^{D2,3}Fc that codes for domain 2 and 3, both as human Fc fusions. The corresponding chimeric proteins, as well as the control hFR3exFc (containing domains 1, 2 and 3) were anchored to an ELISA plate coated with a human Fc antibody. A panel of 8 best Fabs, MSPRO2, 11, 12, 21, 24, 26, 28 and 29, were added, and bound Fab was determined with HRP-α human Fab (FIG. 11). […] Both bind to the Ig like domain 2 while the others require domain 3 for binding. It was then tested whether or not Fabs that belong to the second group would distinguish the FGFR3IIIc isoform from the FGFRIIIb from. FDCP-FR3IIIb or FDCP-FR3IIIc cells were incubated in the presence of 1.25 ng/ml FGF9 with increasing doses of either MSPRO12 or MSPRO29. Ly6.3 was included as control. After 2 days in culture, cell proliferation was measured with the XTT reagent. Clearly, MSPRO29 (open triangle) was completely ineffective against the IIIb isoform (FIG. 12).

Binder | binding result
B1 | no binding
B2 | no binding
B6 | no binding
B4 | no binding
